In article PMC8601423 (PLoS ONE, 2021):

Target: human ACE2-Fc (Q18-S740) recombinant protein (human, UniProt Q9BYF1 18-740)
Experiment: peptide or protein array
Settings: both partners purified

human ACE2-Fc (Q18-S740) recombinant protein, sequence (Q9BYF1 18-740): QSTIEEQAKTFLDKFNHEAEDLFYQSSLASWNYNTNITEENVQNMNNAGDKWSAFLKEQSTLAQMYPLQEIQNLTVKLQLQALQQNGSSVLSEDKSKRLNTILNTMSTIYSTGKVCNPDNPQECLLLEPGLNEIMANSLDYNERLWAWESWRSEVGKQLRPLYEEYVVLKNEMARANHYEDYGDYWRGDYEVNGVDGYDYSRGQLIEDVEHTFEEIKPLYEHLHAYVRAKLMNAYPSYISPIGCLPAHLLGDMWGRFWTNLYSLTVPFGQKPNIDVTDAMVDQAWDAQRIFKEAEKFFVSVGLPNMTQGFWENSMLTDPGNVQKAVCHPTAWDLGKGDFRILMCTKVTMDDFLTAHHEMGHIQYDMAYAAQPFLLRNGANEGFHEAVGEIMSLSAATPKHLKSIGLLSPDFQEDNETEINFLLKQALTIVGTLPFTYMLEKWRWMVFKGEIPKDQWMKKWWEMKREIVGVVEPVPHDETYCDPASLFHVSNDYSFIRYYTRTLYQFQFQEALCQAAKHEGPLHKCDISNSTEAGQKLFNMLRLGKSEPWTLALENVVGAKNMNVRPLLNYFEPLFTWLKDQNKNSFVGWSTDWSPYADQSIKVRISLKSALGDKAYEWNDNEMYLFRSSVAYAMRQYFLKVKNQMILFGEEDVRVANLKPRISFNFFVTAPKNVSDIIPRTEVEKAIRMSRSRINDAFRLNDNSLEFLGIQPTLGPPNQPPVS

| Binder | binding result |
| --- | --- |
| EGFNCYFPLQSYGFQPTNGVGY [SARS-CoV-2 RBM peptide E484-Y508 with Q506-Y508 removed (C-terminal truncation, on peptide array)] | binds |
| SNNLDSKVGGNYNYLYRLFRK [SARS-CoV-2 RBM peptide S438-K462 with S459-K462 removed (C-terminal truncation, on peptide array)] | binds |
| FNCYFPLQSYGFQPTNGVGYQPY | binds |
| SKVGGNYNYLYRLFRKSNLK [SARS-CoV-2 RBM peptide S438-K462 with S438-D442 removed (N-terminal truncation, on peptide array)] | binds |
| SARS-CoV-2 RBM 20mer F486-Y505 (on peptide array) (peptide) peptide: not shown | binds |
